Assay [1] has as its target TCRs of CD8+CD40Ig Tregs (CD8+CD45RClow Tregs from CD40Ig-treated long-term allograft bearing LEW.1A recipients). Kind of assay: BV421 control tetramer staining, flow cytometry, 10 µg/mL.
Assay [2] addresses TCRs of naive splenic CD8+CD45RClow Tregs. Kind of assay: PE and APC tetramer double staining, flow cytometry, 10 µg/mL, 1 hour at 4° C. (In general: In flow cytometry, cells or beads pass a laser one at a time.)
Assay [3] addresses TCRs of CD8+CD40Ig Tregs (CD8+CD45RClow Tregs from CD40Ig-treated long-term allograft bearing LEW.1A recipients). Described as above.
Assay [4] shares this target. Kind of assay: cell-based or functional assay.

Where no end group is shown, it is not given here.

For ILFPSSERLISNR (peptide-MHC, part only; not given: MHC heavy chain and b2m, part only, also: bound in MHC class I RT1.A^a tetramer with streptavidin-BV421) [control tetramer RT1.A^a/MTF-E], the percent non-specific staining among Bu31-10-specific cells in assay [1] came out at 1.6%.
Turning to YLRYDSDVGEYR (peptide-MHC, part only; not given: MHC heavy chain and b2m, part only, also: bound in MHC class I RT1.A^a tetramer with streptavidin-PE or -APC) [MHC class I tetramer RT1.A^a/Bu31-10], the precursor frequency (tetramer-stained cells) in naive splenic CD8+CD45RClow Tregs in assay [2] came to 0.187%. For the same molecule, in assay [3], the percent of Bu31-specific (tetramer-stained) cells among CD8+CD40Ig Tregs, graft amounted to 1.11% and the percent of Bu31-specific (tetramer-stained) cells among CD8+CD40Ig Tregs, spleen amounted to 0.281%.
As to YLRYDSDVGEYRAVTE [peptide Bu31], the CD25 expression at the cell surface of CD8+CD40Ig Tregs after 6 days with matured syngeneic pDCs, fold vs. no peptide in assay [4] came to 1.67 fold.

The values above are taken from patent US20170173125A1.
